T1: mouse CNTN4-rabbit Fc (mouse; rabbit, UniProt Q69Z26 19-1000, limits assumed)
T1 construct: not shown: rabbit Fc
T1 sequence (looked up): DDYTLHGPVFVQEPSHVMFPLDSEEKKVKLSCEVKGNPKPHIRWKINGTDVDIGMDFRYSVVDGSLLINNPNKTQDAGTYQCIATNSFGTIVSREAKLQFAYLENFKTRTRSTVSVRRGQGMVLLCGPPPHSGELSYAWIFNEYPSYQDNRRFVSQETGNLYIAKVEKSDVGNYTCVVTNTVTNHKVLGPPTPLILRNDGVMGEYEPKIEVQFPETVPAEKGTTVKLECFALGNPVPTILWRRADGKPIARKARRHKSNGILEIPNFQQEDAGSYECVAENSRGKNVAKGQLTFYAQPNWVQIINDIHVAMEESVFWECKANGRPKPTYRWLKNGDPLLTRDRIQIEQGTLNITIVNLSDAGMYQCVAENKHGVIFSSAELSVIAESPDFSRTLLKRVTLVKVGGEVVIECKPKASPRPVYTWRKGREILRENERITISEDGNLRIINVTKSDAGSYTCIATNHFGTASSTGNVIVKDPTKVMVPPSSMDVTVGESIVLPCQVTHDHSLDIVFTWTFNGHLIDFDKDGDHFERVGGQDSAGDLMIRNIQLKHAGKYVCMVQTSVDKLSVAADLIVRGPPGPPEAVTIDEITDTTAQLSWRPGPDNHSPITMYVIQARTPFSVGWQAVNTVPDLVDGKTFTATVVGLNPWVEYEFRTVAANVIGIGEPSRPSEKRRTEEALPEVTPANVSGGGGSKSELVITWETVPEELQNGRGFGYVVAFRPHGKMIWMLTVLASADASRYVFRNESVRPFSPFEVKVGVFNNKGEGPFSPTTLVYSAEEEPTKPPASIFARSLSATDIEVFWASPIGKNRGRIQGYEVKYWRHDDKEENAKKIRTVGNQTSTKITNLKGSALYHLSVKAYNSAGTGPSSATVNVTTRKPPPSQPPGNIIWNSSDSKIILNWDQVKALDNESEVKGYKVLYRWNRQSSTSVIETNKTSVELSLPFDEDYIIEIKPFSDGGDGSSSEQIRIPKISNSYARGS

T2: human CNTN4-rabbit Fc (human; rabbit, UniProt Q8IWV2 19-1000, limits assumed)
T2 construct: not shown: rabbit Fc
T2 sequence (looked up): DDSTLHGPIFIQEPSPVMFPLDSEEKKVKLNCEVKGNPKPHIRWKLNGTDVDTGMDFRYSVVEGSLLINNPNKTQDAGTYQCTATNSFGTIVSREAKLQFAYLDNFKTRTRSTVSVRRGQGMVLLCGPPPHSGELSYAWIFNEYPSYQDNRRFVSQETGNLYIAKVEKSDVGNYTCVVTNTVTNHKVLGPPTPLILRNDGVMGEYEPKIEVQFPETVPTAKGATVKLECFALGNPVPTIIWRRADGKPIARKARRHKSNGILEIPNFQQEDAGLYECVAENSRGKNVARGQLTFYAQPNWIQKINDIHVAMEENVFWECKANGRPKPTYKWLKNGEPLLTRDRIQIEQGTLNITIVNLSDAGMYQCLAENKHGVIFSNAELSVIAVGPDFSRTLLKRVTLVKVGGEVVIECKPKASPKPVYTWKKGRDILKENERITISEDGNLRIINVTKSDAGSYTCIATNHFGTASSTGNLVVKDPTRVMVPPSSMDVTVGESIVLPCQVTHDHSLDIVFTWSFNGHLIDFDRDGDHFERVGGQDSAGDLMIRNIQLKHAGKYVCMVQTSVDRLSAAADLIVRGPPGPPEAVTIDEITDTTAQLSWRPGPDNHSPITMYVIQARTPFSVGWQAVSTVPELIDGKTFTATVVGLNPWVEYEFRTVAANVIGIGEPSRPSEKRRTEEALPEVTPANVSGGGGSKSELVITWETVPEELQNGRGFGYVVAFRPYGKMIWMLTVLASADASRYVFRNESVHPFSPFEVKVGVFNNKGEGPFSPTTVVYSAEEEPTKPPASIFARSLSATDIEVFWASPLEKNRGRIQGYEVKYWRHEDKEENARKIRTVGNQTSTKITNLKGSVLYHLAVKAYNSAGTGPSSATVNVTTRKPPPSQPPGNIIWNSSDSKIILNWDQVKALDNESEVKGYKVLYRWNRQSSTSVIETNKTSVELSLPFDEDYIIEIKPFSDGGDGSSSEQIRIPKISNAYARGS

T3: human CNTN4 antigen expressed on the cell membrane of 293FT cells (human) (UniProt Q8IWV2)
T3 sequence (looked up): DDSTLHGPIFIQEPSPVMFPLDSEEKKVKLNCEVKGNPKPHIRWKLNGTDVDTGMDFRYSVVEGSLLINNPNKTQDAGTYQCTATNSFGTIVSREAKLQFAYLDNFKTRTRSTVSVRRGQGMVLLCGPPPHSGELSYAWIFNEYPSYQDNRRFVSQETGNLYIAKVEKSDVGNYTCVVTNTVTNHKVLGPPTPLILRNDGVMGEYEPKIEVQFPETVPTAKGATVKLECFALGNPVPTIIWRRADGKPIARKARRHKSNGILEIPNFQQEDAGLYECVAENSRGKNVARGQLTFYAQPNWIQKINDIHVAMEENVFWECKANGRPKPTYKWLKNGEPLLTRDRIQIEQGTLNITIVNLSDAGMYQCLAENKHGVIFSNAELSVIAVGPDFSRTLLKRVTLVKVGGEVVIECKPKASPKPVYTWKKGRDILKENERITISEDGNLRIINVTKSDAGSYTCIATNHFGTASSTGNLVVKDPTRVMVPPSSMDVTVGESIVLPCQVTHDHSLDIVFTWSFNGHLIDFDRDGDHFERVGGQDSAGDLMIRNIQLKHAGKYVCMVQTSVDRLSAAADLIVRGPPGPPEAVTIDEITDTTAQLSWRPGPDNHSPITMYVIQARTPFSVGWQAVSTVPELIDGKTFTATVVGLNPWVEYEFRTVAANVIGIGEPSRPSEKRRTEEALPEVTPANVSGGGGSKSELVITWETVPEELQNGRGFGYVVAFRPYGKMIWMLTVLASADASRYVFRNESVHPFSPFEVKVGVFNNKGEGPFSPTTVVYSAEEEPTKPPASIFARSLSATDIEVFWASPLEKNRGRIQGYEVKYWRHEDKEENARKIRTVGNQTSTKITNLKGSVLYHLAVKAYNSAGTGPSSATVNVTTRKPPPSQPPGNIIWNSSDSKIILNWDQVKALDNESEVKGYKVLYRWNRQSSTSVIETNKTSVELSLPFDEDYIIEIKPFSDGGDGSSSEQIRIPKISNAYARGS


How the values were obtained:
mouse CNTN4-rabbit Fc = target: T1, mouse CNTN4-rabbit Fc; experiment: ELISA, plate coated with antigen-rabbit Fc, anti-human kappa-HRP
human CNTN4-rabbit Fc = target: T2, human CNTN4-rabbit Fc; experiment: as above
[1] = target: T3, human CNTN4 antigen expressed on the cell membrane of 293FT cells (human); experiment: FACS, 293FT cells transfected with human CNTN4, 40 ug/mL, anti-hCk-PE

Row | EC50 (mouse CNTN4-rabbit Fc) [nM] | EC50 (human CNTN4-rabbit Fc) [nM] | Shift % [1] [%] | Binder
1 | 1.85 | 0.37 | 14.7 | anti-CNTN4 scFv-hCk S6 (scFv, part only; not given: linker and kappa constant region, not shown: a dimerising Fc or GST) scFv, part: ALTQPSSVSANPGETVKITCSGGSGNYGWYQQKSPGSAPVTVIYNGNNRPSDIPSRFSGSGSGSTNTLAITGVQAEDEAVYFCGGYDGTIDAFGAGTTLTVLAVTLDESEGGLQTPGGALSLVCKASGFTFSSFNMFWVRQAPGKGLEYVAEISGGGGSTWYAPAVKGRATISRDNGQSTVRLQLNNLRAEDTGTYYCAKSADTWSYGAATIDAWGHGTEVIVSS
2 | 0.72 | 1.16 | 16.1 | anti-CNTN4 scFv-hCk S132 (scFv, part only; not given: linker and kappa constant region, V domains shown, not shown: another chain or arm of the molecule; a dimerising Fc or GST; small tags and cut ends) VL: ALTQPSSVSANPGETVKITCSGGGSSTYYGWYQQKSPGSAPVTVIYNNNNRPSDIPSRFSGSGSGSTGTLTITGVRAEDEAVYYCGGYDGSTDVFGAGTTLTVL VH: AVTLDESGGGLQTPGGALSLVCKASGFTFSSFNMFWVRQAPGKGLEYVAEISGGGGSTWYAPAVKGRATISRDNGQSTVRLQLNNLRAEDTGTYYCAKSADTWSYGAATIDAWGHGTEVIVSS
3 | 0.75 | 0.75 | 18 | anti-CNTN4 scFv-hCk S134 (scFv, part only; not given: linker and kappa constant region, V domains shown, not shown: another chain or arm of the molecule; a dimerising Fc or GST; small tags and cut ends) VL: ALTQPSSVSANPGETVKITCSGGTYSYGNYYYGWYQQKSPGSAPVTVIYNNNNRPSDIPSRFSGSGSGSTGTLTITGVRAEDEAVYYCGGYDGSTDVFGAGTTLTVL VH: AVTLDESEGGLQTPGGALSLVCKASGFTFSSFNMFWVRQAPGKGLEYVAEISGGGGSTWYAPAVKGRATISRDNGQSTVRLQLNNLRAEDTGTYYCAKSADTWSYGAATIDAWGHGTEVIVSS
4 | 0.71 | 1.06 | 18.2 | anti-CNTN4 scFv-hCk S135 (scFv, part only; not given: linker and kappa constant region, V domains shown, not shown: another chain or arm of the molecule; a dimerising Fc or GST; small tags and cut ends) VL: ALTQPSSVSANPGETVKITCSGGGSSSYYGWYQQKSPGSAPVTVIYYNNRPSDIPSRFSGSGSGSTGTLTITGVRAEDEAVYYCGGYDGSTDVFGAGTTLTVL VH: AVTLDESEGGLQTPGGALSLVCKASGFTFSSFNMFWVRQAPGKGLEYVAEISGGGGSTWYAPAVKGRATISRDNGQSTVRLQLNNLRAEDTGTYYCAKSADTWSYGAATIDAWGHGTEVIVSS
5 | 0.37 | 0.55 | 16 | anti-CNTN4 scFv-hCk S129 (scFv, part only; not given: linker and kappa constant region, not shown: a dimerising Fc or GST) scFv, part: ALTQPSSVSANLGETVKITCSGSSGSYGWYQQKSPGSAPVTLIYDNTNRPSDIPSRFSGSGSGSTGTLTITGVRAEDEAVYYCGGYDGSTDVFGAGTTLTVLAVTLDESEGGLQTPGGALSLVCKASGFTFSSFNMFWVRQAPGKGLEYVAEISGGGGSTWYAPAVKGRATISRDNGQSTVRLQLNNLRAEDTGTYYCAKSADTWSYGAATIDAWGHGTEVIVSS
6 | 3.64 | 8.34 | 20.5 | anti-CNTN4 scFv-hCk S99 (scFv, part only; not given: linker and kappa constant region, V domains shown, not shown: another chain or arm of the molecule; a dimerising Fc or GST; small tags and cut ends) VL: ALTQPSSVSANPGETVKITCSGGASYAGNYYYGWYQQKSPGSAPVTVIYNNNQRPSDIPSRFSGSLSGSTNTLTITGVQADDEAVYFCGSDDSSAGYTGIFGAGTTLTVL VH: AVTLDESGGGLQTPGGALSLVCKASEFTFSGYGMHWVRQAPGKGLEFVAEISNTGSWTGYGAAVKGRATISRDNGQSTVRLQLNNLKADDTATYYCAKVGGRGWCGRSGCADDIDAWGHGTEVIVSS
7 |  |  | 5.27 | anti-CNTN4 scFv-hCk S83 (scFv, part only; not given: linker and kappa constant region, not shown: a dimerising Fc or GST) scFv, part: ALTQPSSVSANLGETVKITCSGGGGYSGSYYYGWYQQKSPAGAPDTVIYSNNQRPSNIPSRFSGSKSGSTGTLTITEDHAEDEAVYYCGSIDSSSNPGIFGAGTTLTVLAVTLDKSGGGLHTPGGALSLVCKASGFTFSRYIMQWVLQAPGKVLEWVASIRNGTTPKYGAAVKGRATISRDNGQSTVMLQLNSLTYDDTDAYYCDRGDDGDCICGGCAASIDIWCYATEVIVSS

— US20240182563A1 (GENOME, published 2024)
